Measured values as given in the RNAGym collection of RNA variant scans (doi:10.1073/pnas.2313332121).
Fewer inactive variants are shown than the library holds.

B1: TPR 5TU (parent)
chain: GGAUCUUCUCGAUCUAACAAAAAAGACAAAUCUGCCACAAAGCUUGAGAGCAUCUUCGGAUGCAGAGGCGGCAGCCUUCGGUGGCGCGAUAGCGCCAACGUUCUCAACUAUGACACGCAAAACGCGUGCUCCGUUGAAUGGAGUUUAUCAUG

Variants of: B1
Assay: polymerase ribozyme fitness, log enrichment relative to wild type (log ratio); higher = more active; in vitro selection for triplet polymerase activity
Outline: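 Only genotypes with ≥10 input reads and ≥1 read per output were kept after Illumina sequencing of input and output libraries. These libraries were PCR-built, transcribed mutants of each subunit of a heterodimeric triplet polymerase ribozyme, each put through one triplicate in vitro selection round with frozen incubation at −7 °C, gel excision of extended constructs, streptavidin-bead capture and RT-PCR. Fitness is a logarithmic ratio of genotype enrichment to wild-type enrichment, from inverse-variance-weighted replicate averages, with the logarithm in base 2.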

Variant | polymerase ribozyme fitness (log ratio)
C5A G11C C85U A119C C131G G141C | 0.451
C5A A26C A30U A52C G70A G86C | ≤ -4.2
A3U A26U C57U C108U C125A A147C U148G | ≤ -4.2
U4C A12U A21G G59A C85G G124U | -2.83
U4G A73C G92C | -4.15
A3U C27G C38U G48U G58U C79G G92A C105U G117U G143U | ≤ -4.2
A3U U6G C35G G50U U78G C79U G141U | ≤ -4.2
A3U U4C A52C G67A G83U A122U A137U U148A | ≤ -4.2
U4C A52U U82G C96A | -3.56
C5G G84U | -2.38
A3G C27U G50A C51U C85A G140U | ≤ -4.2
C5A C76U G84U C125U G141U | -3.64
A3U U13C A41U C76U C123U | -2.89
C5U A23U A24C G46A C96U A137U | ≤ -4.2
A3U A49G G50A C96U G141A | -3.63
C5A C10U A41C A49C U139G U151G | ≤ -4.2
A3U U7C A52C C95U C99U | ≤ -4.2
U4G C35A C79A G94A U148G | ≤ -4.2
C5G C32G C72U A73G A91G A119U G141A | ≤ -4.2
C5G A19U A91G A113G | ≤ -4.2
C5G C76U | -0.335
U4C C43U C85U G133A G141U | ≤ -4.2
C5G A30C G81U A138C U144C | ≤ -4.2
A3U A21C G62C C63U A73U C79U G84A C93G A106U U145G | ≤ -4.2

Variant | polymerase ribozyme fitness (log ratio)
U4A A60C G71U G92C C108G G117A G124U A137C | ≤ -4.2
C5G A23C A66G C69U A91G C105G A120U | ≤ -4.2
U4C U7C A17U A41C G68C U78A C99A C103G | ≤ -4.2
U4G A39G A142G | -3.9
C5A A21G A41C A64U C85A C96U A110U G117U | ≤ -4.2
U4C A19U G50C C76U U144G | ≤ -4.2
C5G U6G U7G C14G A28C A30C G50C C51G A89G C93G G94U C105U C116U G143U | ≤ -4.2
U4G A26U G50U C87A G141A A150U | ≤ -4.2
U4G U56G U144A | -1.19
C5G C54A G58C A73G C79A C87U C116A A138G | ≤ -4.2
C5G C32A C57U C99U | ≤ -4.2
U4C A60U G74A C93U A106U A107U A150C | ≤ -4.2
C5U A91U | -3.99
U4A G92U | -0.358
C5A A66G C96U A115G U139G G140A | ≤ -4.2
C5A A20U C35U A91C U101A C105G U145G | ≤ -4.2
A3U A49G | -0.232
A3U A12G C43U C54U G71U C79A A120C | ≤ -4.2
U4C C51U C96A A121C U134A | -3.3
U4A C8G U13G A24C C96U | ≤ -4.2
C5G C99A | -0.989
C5G A21C A29U U82A G94A G136C U151C | ≤ -4.2
A3U A17C A47U C93U U104A | -1.38
C5U A73G C85G | -0.907

Variant | polymerase ribozyme fitness (log ratio)
A3U A16U A17G A23C C93U A106G A122G U139G | ≤ -4.2
C5G U53A U56A G68C G94A C118U U148A A150C | ≤ -4.2
C5A A16C A19U U61A | -2.61
C5A C54A C57A G58A G68A A89U C95G | ≤ -4.2
C5G A30U G59A C87G C108U U148A | ≤ -4.2
C5G C54A G65C A66G C85U | ≤ -4.2
C5G A52G G80A | -1.81
C5U A52U A64C G70C C85A C116G A122U C125U A150G | ≤ -4.2
C5A U6G U82C C95G | -2.28
U4C U7G C87A G100A U101A | ≤ -4.2
U4C U15C A22C A29U C43G U44A U45G C57U G59U C93U | ≤ -4.2
C5U A142U | -0.885
C5G G48C U77A C85A G100A C103G C125A | ≤ -4.2
C5A U13C C38U A121G U127C | -4.07
A3G U82G C95U U102G | -3.62
C5U C38G C57U G84U A106C | -3
C5A A20C C96U | -0.294
C5A A26G C36A C96A | ≤ -4.2
C5G C10G A26C C93U A106G G140U | ≤ -4.2
C5G A147C | -0.562
A3U C5G A21U C85U A122G G140U U144G | ≤ -4.2
A3U G58A C87G U101C A113U C131G | ≤ -4.2
C5A C35A U55A A91G G100U G126A A147G | ≤ -4.2
U4C G50C U56A G74A C87A G88U C116U | ≤ -4.2

Variant | polymerase ribozyme fitness (log ratio)
A3G U6A U31G G88U | ≤ -4.2
C5A U6G G46A U56A U82C C93A A107G C125U G136U | ≤ -4.2
A3U G58A C96G | -1.09
U4A G94A | -0.663
U4G A12U A39C G62A C76U C87G A91U | ≤ -4.2
A3G U13A G42C C75U A138U | ≤ -4.2
A3U G59C | -0.00695
U4C C10A U15G G62C A64U G80A C93A C116A U127G C131U G141U U145A | ≤ -4.2
A3U U82G | -0.249
A3G G94A | -1.67
U4G C85U | -0.873
A3U C93U C118U | -1.3
C5G A12G G83A G94A G141C | -4.19
C5A A26U C35G A39U C76U C85U C118U A119C | -4.09
A3U C43A U45A A47U G59C C125U U130C A137G | ≤ -4.2
U4A A22C G48U C75G G84A | ≤ -4.2
C5G C105U | -0.0507
C5A A20G A22C C35A U77G C87A A115C G124C | ≤ -4.2
A3U C99U | -0.307
U4C C14U G42A G84A C105G | ≤ -4.2
U4A C8G U53G G71U A73G C79G C85G C87A G88U G92U A115G | ≤ -4.2
C5A U9C C85A | -2.68
C5U A20C G59A A60G C69A A98G | -2.12
U4A C93A | -1.38

Variant | polymerase ribozyme fitness (log ratio)
U4C C38G G59A U61A U148C | ≤ -4.2
C5G A16U C43G C93G A106U A107U | ≤ -4.2
C5A G11A G84A C95A C103U C116U | -1.5
C5A A16G G50U C51A A89U U134G A137G G140A A142C A147C | ≤ -4.2
U4A A16G A37U A91G G124U | ≤ -4.2
C5G U55A G70C C85A C96U U151G | ≤ -4.2
A3U A40G C54U C95A C149G | ≤ -4.2
U4G C27G A40U C116G A137C | ≤ -4.2
U4C G25U C79A C93G U111C | ≤ -4.2
U4C C87G A107G | ≤ -4.2
U4C C5G U55A C75A G88C G133U | -4.17
C5U A47G C79A A138G | ≤ -4.2
C5G C10A G11A A30U A49C C93U G136A | ≤ -4.2
C5G C10G G92A C123U A138C G143A | ≤ -4.2
A3U C57U C87U A113C A119G | -3.73
U4A C76G A91U A115U | ≤ -4.2
U4A A147C | -0.789
U4A U6A A17U A30U C105U U134G | ≤ -4.2
C5A C57A A119U A137G U146G | -2.37
U4G C35G C95G U134A G136U | -4.16
U4A A19C A89U C96U A138G U146G | ≤ -4.2
C5U A47C G59A C87U C93U | -3.16
U4G C75G A91U G92A U101G C125U | ≤ -4.2
C5U A16C G81A U82A G126C | -0.899

Variant | polymerase ribozyme fitness (log ratio)
C5A A24C G48U G65C C87U C99U A121G | ≤ -4.2
U4C C85A C95G A115G | -3.75
A3U A26U A29U A49C C87U C114U G141A | ≤ -4.2
C5A C57G C75U G86A A91C | -4.01
A3G U15C C93G U146G | -2.23
C5A A28U | -3.92
A3U C18U G50A G68A C76A G92C C93U | ≤ -4.2
A3U C54A | -2.21
C5G A39U C57A G59U G83U C103G C116U | ≤ -4.2
A3U C36A U55C C79A C99A U145G | ≤ -4.2
C5G C93A | -2.55
C5A A17U U56A U127A | -4.16
A3G C51A | -1.26
U4A C54U G92U C118U U134A | -3.6
U4C A20U A29U G46C C54U C85U C116U | ≤ -4.2
U4C G86A | -0.918
U4A G11A A28U G65A C72U G80U G84C A91C A97C A106C C118U G141U | ≤ -4.2
A3G U15G G25U A41C G83A U90A A98U C99G A113G | ≤ -4.2
C5A U7G C32G A115U U146C | ≤ -4.2
C5A C72U C85U C95U | -0.0103
A3U A12G A28U C87U | ≤ -4.2
U4A C10U A26U U31G A39G C57A C85A U90G A113C | ≤ -4.2
C5G C85A C116A | 0.0205
C5G A19U A37U U45A U61A C87U | ≤ -4.2

Variant | polymerase ribozyme fitness (log ratio)
U4A A24U U31G C54U G84A | -1.15
C5G U77A G94U G140C G152A | ≤ -4.2
U4G A41C A137C | ≤ -4.2
C5G A20C | -0.472
A3U G59A C99U U144C A150G | ≤ -4.2
C5G U13A | -1.14
A3U C38U C96U G126U G143A | ≤ -4.2
U4G A24C G84U G86U C108U A122G U151C | ≤ -4.2
A3G C18U G34U C95U A115C | -4.09
U4C C5A A24U A41G G46C C85U C96G | -3.3
C5G G50U G81C G92C G143A | -2.74
U4A U55A A64C | ≤ -4.2
C5G A16G A19G A24U A37G G50C G84U A120C G133U | ≤ -4.2
U4C C5U A23C A47C C79A C85G U90C G117U G152U | ≤ -4.2
C5A C14G A19G C36A U102G C132G | ≤ -4.2
C5A U44C C76A G84A C131U A150U | ≤ -4.2
C5A G25C A41C C85U A89C A115G C132G U146C U148G | ≤ -4.2
C5G A41C G46C C57G A60U G68C U135A G141A | ≤ -4.2
A3G C75A C93A A97U A98U U101G C118U | ≤ -4.2
C5A A23G U33G A66G G83A C87U A113G G124A U127C | -3.78
C5G C8U A12U C27G G59C A66G U78C U101A C125G C131A U139C | -3.97
U4A A21G U55G U101G G152A | ≤ -4.2
A3U U45A C96A | -3.51
